Experiments:
MKK7 [1] = target: T1, MKK7 (Homo sapiens, UniProt O14733); assay: FP measurements of MKK7 activity, time course (Example 7); assay type: biochemical; conditions: 100 μM P1°
T1 construct: purchased Upstate Biotech 14-366
T1 sequence (O14733 1-419): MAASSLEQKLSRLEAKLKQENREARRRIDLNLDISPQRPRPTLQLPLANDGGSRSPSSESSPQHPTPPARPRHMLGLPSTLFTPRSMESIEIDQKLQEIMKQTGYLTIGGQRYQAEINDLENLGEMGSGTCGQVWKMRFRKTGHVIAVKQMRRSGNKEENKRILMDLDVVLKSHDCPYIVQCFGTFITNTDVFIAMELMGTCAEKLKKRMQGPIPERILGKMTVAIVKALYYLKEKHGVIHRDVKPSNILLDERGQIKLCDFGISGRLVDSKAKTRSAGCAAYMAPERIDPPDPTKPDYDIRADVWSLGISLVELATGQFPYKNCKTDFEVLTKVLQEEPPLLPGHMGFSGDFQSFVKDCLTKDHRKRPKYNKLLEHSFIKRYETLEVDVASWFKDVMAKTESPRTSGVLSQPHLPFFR
Method: Fluorescence Polarization measurements of MKK7 activity (time course): In this experiment, the time course has been investigated at P1^∘ substrate concentrations of 100 μM. The reactions were stopped with EDTA. The following reagents have been used (the compositions of the buffers and specifications of the reagents are explained in more detail later on): […] After addition of MKK7, the enzyme reactions were performed in Nunc chambers at RT. The samples were continuously measured at different time points by Fluorescence polarization.

MKK7 [2] = target: T1, MKK7; assay: FP measurements of MKK7 activity, time course, optimized conditions (Example 8); assay type: biochemical
Method: Fluorescence Polarization measurements of MKK7 activity (time course): In this experiment the assay conditions have been optimized. The reactions were stopped with EDTA. […] The following reagents have been used (explanations later on): […] The enzyme reactions were performed in Eppendorf reaction tubes at RT. Aliquots of 20 μl were withdrawn from the reactions at different time points and mixed with 10 μl STOP solution.

MKK7 [3] = target: T1, MKK7; conditions: when max. activated; cited from earlier work

B1: MKK7: MKK7 kinase, supplier Upstate Biotech cat. no. 14-366 (protein, UniProt O14733 2-419, looked up)
Dual specificity …: AASSLEQKLSRLEAKLKQENREARRRIDLNLDISPQRPRPTLQLPLANDGGSRSPSSESSPQHPTPPARPRHMLGLPSTLFTPRSMESIEIDQKLQEIMKQTGYLTIGGQRYQAEINDLENLGEMGSGTCGQVWKMRFRKTGHVIAVKQMRRSGNKEENKRILMDLDVVLKSHDCPYIVQCFGTFITNTDVFIAMELMGTCAEKLKKRMQGPIPERILGKMTVAIVKALYYLKEKHGVIHRDVKPSNILLDERGQIKLCDFGISGRLVDSKAKTRSAGCAAYMAPERIDPPDPTKPDYDIRADVWSLGISLVELATGQFPYKNCKTDFEVLTKVLQEEPPLLPGHMGFSGDFQSFVKDCLTKDHRKRPKYNKLLEHSFIKRYETLEVDVASWFKDVMAKTESPRTSGVLSQPHLPFFR
MKK7 [1]; MKK7 0.005 μM, 0 h
  Fluorescence Polarization: 131.5 mP
MKK7 [1]; MKK7 0.005 μM, 0.5 h
  Fluorescence Polarization: 137.4 mP
MKK7 [1]; MKK7 0.005 μM, 1 h
  Fluorescence Polarization: 136.8 mP
MKK7 [1]; MKK7 0.005 μM, 1.5 h
  Fluorescence Polarization: 136.9 mP
MKK7 [1]; MKK7 0.005 μM, 3 h
  Fluorescence Polarization: 138.1 mP
MKK7 [1]; MKK7 0.02 μM, 0 h
  Fluorescence Polarization: 135.4 mP
MKK7 [1]; MKK7 0.02 μM, 0.5 h
  Fluorescence Polarization: 140.3 mP
MKK7 [1]; MKK7 0.02 μM, 1 h
  Fluorescence Polarization: 140.9 mP
MKK7 [1]; MKK7 0.02 μM, 1.5 h
  Fluorescence Polarization: 139.7 mP
MKK7 [1]; MKK7 0.02 μM, 3 h
  Fluorescence Polarization: 140.0 mP
MKK7 [1]; MKK7 0.08 μM, 0 h
  Fluorescence Polarization: 133.5 mP
MKK7 [1]; MKK7 0.08 μM, 0.5 h
  Fluorescence Polarization: 137.6 mP
MKK7 [1]; MKK7 0.08 μM, 1 h
  Fluorescence Polarization: 135.8 mP
MKK7 [1]; MKK7 0.08 μM, 1.5 h
  Fluorescence Polarization: 128.4 mP
MKK7 [1]; MKK7 0.08 μM, 3 h
  Fluorescence Polarization: 115.2 mP
MKK7 [1]; MKK7 0.2 μM, 0 h
  Fluorescence Polarization: 135.3 mP
MKK7 [1]; MKK7 0.2 μM, 0.5 h
  Fluorescence Polarization: 132.1 mP
MKK7 [1]; MKK7 0.2 μM, 1 h
  Fluorescence Polarization: 121.9 mP
MKK7 [1]; MKK7 0.2 μM, 1.5 h
  Fluorescence Polarization: 113.8 mP
MKK7 [1]; MKK7 0.2 μM, 3 h
  Fluorescence Polarization: 104.7 mP
MKK7 [1]; MKK7 0.5 μM, 0 h
  Fluorescence Polarization: 135.3 mP
MKK7 [1]; MKK7 0.5 μM, 0.5 h
  Fluorescence Polarization: 125.5 mP
MKK7 [1]; MKK7 0.5 μM, 1 h
  Fluorescence Polarization: 115.3 mP
MKK7 [1]; MKK7 0.5 μM, 1.5 h
  Fluorescence Polarization: 108.8 mP
MKK7 [1]; MKK7 0.5 μM, 3 h
  Fluorescence Polarization: 106.6 mP
MKK7 [1]; MKK7 1.0 μM, 0 h
  Fluorescence Polarization: 135.7 mP
MKK7 [1]; MKK7 1.0 μM, 0.5 h
  Fluorescence Polarization: 119.6 mP
MKK7 [1]; MKK7 1.0 μM, 1 h
  Fluorescence Polarization: 112.2 mP
MKK7 [1]; MKK7 1.0 μM, 1.5 h
  Fluorescence Polarization: 105.3 mP
MKK7 [1]; MKK7 1.0 μM, 3 h
  Fluorescence Polarization: 108.4 mP
MKK7 [2]; NEB ab in STOP sol., MKK7 0.04 μM, 0 h
  Fluorescence Polarization: 147.2 mP
MKK7 [2]; NEB ab in STOP sol., MKK7 0.04 μM, 0.5 h
  Fluorescence Polarization: 141.5 mP
MKK7 [2]; NEB ab in STOP sol., MKK7 0.04 μM, 1 h
  Fluorescence Polarization: 140.2 mP
MKK7 [2]; NEB ab in STOP sol., MKK7 0.04 μM, 1.5 h
  Fluorescence Polarization: 135.8 mP
MKK7 [2]; NEB ab in STOP sol., MKK7 0.04 μM, 2 h
  Fluorescence Polarization: 134.2 mP
MKK7 [2]; NEB ab in STOP sol., MKK7 0.04 μM, 3 h
  Fluorescence Polarization: 138.2 mP
MKK7 [2]; NEB ab in STOP sol., MKK7 0.08 μM, 0 h
  Fluorescence Polarization: 143.3 mP
MKK7 [2]; NEB ab in STOP sol., MKK7 0.08 μM, 0.5 h
  Fluorescence Polarization: 139.1 mP
MKK7 [2]; NEB ab in STOP sol., MKK7 0.08 μM, 1 h
  Fluorescence Polarization: 133.6 mP
MKK7 [2]; NEB ab in STOP sol., MKK7 0.08 μM, 1.5 h
  Fluorescence Polarization: 122.1 mP
MKK7 [2]; NEB ab in STOP sol., MKK7 0.08 μM, 2 h
  Fluorescence Polarization: 115.8 mP
MKK7 [2]; NEB ab in STOP sol., MKK7 0.08 μM, 3 h
  Fluorescence Polarization: 125.0 mP
MKK7 [2]; NEB ab in STOP sol., MKK7 0.2 μM, 0 h
  Fluorescence Polarization: 148.2 mP
MKK7 [2]; NEB ab in STOP sol., MKK7 0.2 μM, 0.5 h
  Fluorescence Polarization: 130.2 mP
MKK7 [2]; NEB ab in STOP sol., MKK7 0.2 μM, 1 h
  Fluorescence Polarization: 114.0 mP
MKK7 [2]; NEB ab in STOP sol., MKK7 0.2 μM, 1.5 h
  Fluorescence Polarization: 102.8 mP
MKK7 [2]; NEB ab in STOP sol., MKK7 0.2 μM, 2 h
  Fluorescence Polarization: 99.2 mP
MKK7 [2]; NEB ab in STOP sol., MKK7 0.2 μM, 3 h
  Fluorescence Polarization: 119.4 mP
MKK7 [2]; NEB ab in reaction, MKK7 0.04 μM, 0 h
  Fluorescence Polarization: 150.0 mP
MKK7 [2]; NEB ab in reaction, MKK7 0.04 μM, 0.5 h
  Fluorescence Polarization: 128.5 mP
MKK7 [2]; NEB ab in reaction, MKK7 0.04 μM, 1 h
  Fluorescence Polarization: 125.7 mP
MKK7 [2]; NEB ab in reaction, MKK7 0.04 μM, 1.5 h
  Fluorescence Polarization: 112.9 mP
MKK7 [2]; NEB ab in reaction, MKK7 0.04 μM, 2 h
  Fluorescence Polarization: 109.7 mP
MKK7 [2]; NEB ab in reaction, MKK7 0.04 μM, 3 h
  Fluorescence Polarization: 78.6 mP
MKK7 [2]; NEB ab in reaction, MKK7 0.08 μM, 0 h
  Fluorescence Polarization: 138.5 mP
MKK7 [2]; NEB ab in reaction, MKK7 0.08 μM, 0.5 h
  Fluorescence Polarization: 122.5 mP
MKK7 [2]; NEB ab in reaction, MKK7 0.08 μM, 1 h
  Fluorescence Polarization: 105.9 mP
MKK7 [2]; NEB ab in reaction, MKK7 0.08 μM, 1.5 h
  Fluorescence Polarization: 86.4 mP
MKK7 [2]; NEB ab in reaction, MKK7 0.08 μM, 2 h
  Fluorescence Polarization: 84.5 mP
MKK7 [2]; NEB ab in reaction, MKK7 0.08 μM, 3 h
  Fluorescence Polarization: 65.0 mP
MKK7 [2]; NEB ab in reaction, MKK7 0.2 μM, 0 h
  Fluorescence Polarization: 137.2 mP
MKK7 [2]; NEB ab in reaction, MKK7 0.2 μM, 0.5 h
  Fluorescence Polarization: 101.4 mP
MKK7 [2]; NEB ab in reaction, MKK7 0.2 μM, 1 h
  Fluorescence Polarization: 83.1 mP
MKK7 [2]; NEB ab in reaction, MKK7 0.2 μM, 1.5 h
  Fluorescence Polarization: 78.1 mP
MKK7 [2]; NEB ab in reaction, MKK7 0.2 μM, 2 h
  Fluorescence Polarization: 72.1 mP
MKK7 [2]; NEB ab in reaction, MKK7 0.2 μM, 3 h
  Fluorescence Polarization: 59.4 mP
MKK7 [3]
  Specific activity: Approximately 20 Units/mg

From patent US7049080B2, “Process for detecting serine/threonine kinase activity” (priority 2000, dated 2006)
